The data set deals with the molecule itself. Description: static light scattering + AUC; Dpy30FL and Dpy30C in solution.

B1: Dpy30 C-terminal domain (domain or fragment)
chain: not shown
Turning to B1, the stoichiometry N (in general, the number of molecules, sites or subunits per partner or assembly) was 2.

Source of the values: article PMC4312765 (Protein & Cell, 2014).
